{
  "source": "the nanobody polyreactivity screen of Harvey et al. (2022)",
  "data": [
    {"assay": "yeast display, Sf9 membrane polyspecificity reagent, FACS + sequencing; frameworks hold sequencing errors", "summary_of_the_method": "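Synthetic nanobody libraries on Saccharomyces cerevisiae BJ5465 were galactose-induced for 36–48 hours, stained 1 hour at 4 °C with 10% biotinylated, detergent-solubilized Sf9 membrane reagent and enriched on streptavidin microbeads. FACS then separated cells into low and high (top ~1%) gates by anti-HA (expression) and streptavidin (reagent binding) fluorescence. Genes were colony-PCR amplified, MiSeq 2 × 250 sequenced and CDR-length filtered. A clone's polyreactivity label is that of its gate of origin.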", "values": [
      {"sequence": "QVQLEESGGGLVQAGGSLRLSCAASGFTFGRYPLGWYRQAPGKERELVAAITRGSGGTYYADSVKGRFTISRDNAKNTVYLQMNSLKPEDTAVYYCNTASYRGYDYWGQGTQVTVSS", "polyreactivity (PSR sort gate)": "high polyreactivity"},
      {"sequence": "QVQLEESGGGLVQAGGSLRLSCAASGFTFRYYAMGRYRQAPGKVRELVAVISRTGGSTNFADSVKGRFTISRDNAKKTVYLQMNSLKPEDTAVYYCNAVARYQTKYRYEYWGQGTQETVSS", "polyreactivity (PSR sort gate)": "high polyreactivity"},
      {"sequence": "QVQLEESGGGLVQAGGSLRLSCAASGFTFSPNAMGWYRQAPGKVRELVAAIDWIGGSTYYADSVKWRFTISRDNAKNTVYLQMKSLNTEDTAVYLCTADWVYWHYLTYLVTFDYWGQGTQVTVSS", "polyreactivity (PSR sort gate)": "low polyreactivity"},
      {"sequence": "QVQLEESGGGLVQAGGSLRLSCAASGFTFSRNAMGWYRKAPGKERQLVARISSRGGSTYYADSVKGRFTISRDNAKKTVYLQMNSLKPEDTAVYYCARDPVGTTAARYNYWGQGTQVTVSS", "polyreactivity (PSR sort gate)": "high polyreactivity"},
      {"sequence": "QVQLEESGGGLVQAGGSLRLSCAASGFTFTPNAMGWYRQAPGKERELVAAINWSGGRTYYADSVKGRFTISRDNAKNTVYLQMNSLKPEDTAVYYCNVLKGRSYYPGMDYWGQGTQVTVSS", "polyreactivity (PSR sort gate)": "high polyreactivity"},
      {"sequence": "QVQLEESGGGLVQAGGSLRLSCAASGFTFVDYVMGWYRQAPGKERELVAAISRRAGRTYYADSVKGRFTNSRDNAKNTVYFQMNSLKREDTAVYSCAAYLSRSYYAYDYWGQGTQVTVSS", "polyreactivity (PSR sort gate)": "high polyreactivity"},
      {"sequence": "QVQLEESGGGLVQAGGSLRLSCAASGFTFVPYAMGWYRQAPGKERELVARITWSGGSTYYADSVKGRFTISRDNAKNTVYLQMNSLKPEDTAVYYCNLDTRYPGYWRVFAKNNYWGQGTQVTVSS", "polyreactivity (PSR sort gate)": "high polyreactivity"},
      {"sequence": "QVQLEESGGGLVQAGGSLRLSCAASGFTFYLYAMGWYRQAPGKERELVASISSGGRTYYADSVKGRFTISRDNAKNTVYLQMNSLKPEDTAVYYCAVSPYSRRKYEYYYWGQGTQVTVSS", "polyreactivity (PSR sort gate)": "high polyreactivity"},
      {"sequence": "QVQLEESGGGLVQAGGSLRLSCAASGFTIGYNAKGWYRQATRKERELVAAIRSTGSTNYADSVKGRFTISRDYAKNTVYLQMNSLKPEDTAVYYGAAGRNAAIVYDYDYWGQGTQVTVSS", "polyreactivity (PSR sort gate)": "low polyreactivity"},
      {"sequence": "QVQLEESGGGLVQAGGSLRLSCAASGFTLDTYAMGWYRQAPGKERELVAAITSRGGTTYYADSVKGRFTISRDNAKNTVYLQMNSLKPEDTAVYYCNAVTKRWWYRTGYGYWGQGTQVTVSS", "polyreactivity (PSR sort gate)": "high polyreactivity"},
      {"sequence": "QVQLEESGGGLVQAGGSLRLSCAASGFTLRGYAMGWYRQAPGKERELVAAINGGGSTYYADSVKGRFTISRDNAKNTVYLQMNSLKPEDTAVYYCAVRIRKTAFRVLRYNYWGQGTQVTVSS", "polyreactivity (PSR sort gate)": "high polyreactivity"},
      {"sequence": "QVQLEESGGGLVQAGGSLRLSCAASGGTFDEYAMGWSRQAPGKERELVATISWNSGSTYYADSVKGRFTISRDNAKNTVYLQMNSLKPEDTAVYYCATGRNVGVWSDDYWGQGTQVTVSS", "polyreactivity (PSR sort gate)": "high polyreactivity"},
      {"sequence": "QVQLEESGGGLVQAGGSLRLSCAASGGTFGWYAMGWYRPAPGTERELVAAITSSGGTTFYADSVKGRFTISRDTAKNTVYLQMNSLKPEDTAVYYCAKRGKRPTRYKLGKYDYWGQGTQVTVSS", "polyreactivity (PSR sort gate)": "high polyreactivity"},
      {"sequence": "QVQLEESGGGLVQAGGSLRLSCAASGIFSRYAMGWDRQAPGKERELVAAISSRGSTYYADSVKGRFTISRDNAKYTVYLQLNSMKPEDTGVYYCAATVGRGKLDYWGQGTQVNVSS", "polyreactivity (PSR sort gate)": "high polyreactivity"},
      {"sequence": "QVQLEESGGGLVQAGGSLRLSCAASGIIFHEYALGWYRQAPGKERELDASISWNDGSTYADSVKGRFTISRDNAKNTVYLQMNSQKPEDTAVYYCAADYPYYPFSSIYDYWGQGTQVTVSS", "polyreactivity (PSR sort gate)": "low polyreactivity"},
      {"sequence": "QVQLEESGGGLVQAGGSLRLSCAASGIIFRCYCMGWYRQAPGKDRELVATITSGGRTNYADSVKGRFTISRDKAKNTVYLQMNSLNTEDTAVYYCAAARLFAMDYWGQGTQVTVSS", "polyreactivity (PSR sort gate)": "low polyreactivity"},
      {"sequence": "QVQLEESGGGLVQAGGSLRLSCAASGIIFRLYAMGRYRQAPGKERELVAAISSGGSTNYADSVKGRFTISRDNAKNTVYLQMNSLKPEDTAVYYCAAGKAHNYDYWGQGTQVTVSS", "polyreactivity (PSR sort gate)": "low polyreactivity"},
      {"sequence": "QVQLEESGGGLVQAGGSLRLSCAASGIISTYYVMGWYRQAPGKERELVAAITGGDSSTYYADSVKGRFTISRDTAKNTVYLQMNSLIPDDTAVYYCAKEYYYARGARYDYWGQGTQVTVSS", "polyreactivity (PSR sort gate)": "low polyreactivity"},
      {"sequence": "QVQLEESGGGLVQAGGSLRLSCAASGITFDDYTMGWYRQAPGKERELVAAITRSGGSTYYADSVKGRFTISRDTAKITVSLQMNSLKPEDTAVYYCSRVKGRGFKNGYWGQGTKVTVSS", "polyreactivity (PSR sort gate)": "high polyreactivity"},
      {"sequence": "QVQLEESGGGLVQAGGSLRLSCAASGITFLNYAMGWYRQATGKERELVAAISWSGGRTYYADSVKGRFTISRDNAKNTVYLQMNSLKPEDTAVYYCAVRGSWYSEHNYWGQGTQVTVSS", "polyreactivity (PSR sort gate)": "high polyreactivity"},
      {"sequence": "QVQLEESGGGLVQAGGSLRLSCAASGITFNSYAMGSYRQAPGKERELVAAISGSGSSTYYADSVKGRFTISRDNAKNTVYLQMTSLKPEDTAVYYCAATGYSSWTFYTHEYWGQGTQVTVSS", "polyreactivity (PSR sort gate)": "low polyreactivity"},
      {"sequence": "QVQLEESGGGLVQAGGSLRLSCAASGLIFITYAMGWYRQAPGKERELVATITLRGGSTYYADSVKGRFTISRDNAKNTVYLQMNSLKPEDTAVYYCAADVGYWGRSRGYPSDDYDYWGQGTQVTVSS", "polyreactivity (PSR sort gate)": "low polyreactivity"},
      {"sequence": "QVQLEESGGGLVQAGGSLRLSCAASGLIYSSYAMGWYRQAPGKERELVAAIRSGGNTNYADSVKGRFTISRDNAKNTVYLQMNSLKPEDTAVYYCADGTYSRPYYRTFDHWGQGTQVTVSS", "polyreactivity (PSR sort gate)": "low polyreactivity"},
      {"sequence": "QVQLEESGGGLVQAGGSLRLSCAASGNTFYKYTMGWYRQAPGKERELLAAITWSGGSTYYADSVKGRFTISRDNAKNTVYLQMNSLKPEDTAVYYCNADDYQYKTWYHLDYWGQGTQVTVSS", "polyreactivity (PSR sort gate)": "low polyreactivity"},
      {"sequence": "QVQLEESGGGLVQAGGSLRLSCAASGNTSPVNAMGWYRQAPGKERELVAAITQSGGSTYYADSLKGRFTISRDNAKITVYFQMNSLKPQDTAVYYCAADVLGPQYWWYDYWGQGTQVTVSS", "polyreactivity (PSR sort gate)": "low polyreactivity"},
      {"sequence": "QVQLEESGGGLVQAGGSLRLSCAASGRIFGGNAMGWYRQAPGKERELVAAINSSGGRTYYADSLKGRFTISRDNAKYTVYLQMNSLKTEDTAVYYCSARVVGNWYDYWGQGTQVTVSS", "polyreactivity (PSR sort gate)": "high polyreactivity"},
      {"sequence": "QVQLEESGGGLVQAGGSLRLSCAASGRIFGRNARGWYRQAPVKERELVAAISWRGGNTYYADSVKGRFTISRDNAKNTVYLQMKSLKAEDTAFYYCNTVQSRNEMGYWGQGTQVTVSS", "polyreactivity (PSR sort gate)": "high polyreactivity"},
      {"sequence": "QVQLEESGGGLVQAGGSLRLSCAASGRIFGSYAMGWYRQAAGNERELVAAITRSGGSTYYADSVKGRFTISRDNAKNTVYLQMNSLTPEDTAVYYCAAYFRFSGSAKFGYWGQGTQVTVSS", "polyreactivity (PSR sort gate)": "high polyreactivity"},
      {"sequence": "QVQLEESGGGLVQAGGSLRLSCAASGRIFGVNAMGWYRQAPGKERELVAAIRYSGGSTYYADSVKGRFTISRDNAKNTVYLQMNSLKPEDTAVYYCARDVWNYWDGVFQYYSYDFDYWGQGTQVTVSS", "polyreactivity (PSR sort gate)": "low polyreactivity"},
      {"sequence": "QVQLEESGGGLVQAGGSLRLSCAASGRIFRANAMGRYRQAPGKERELVADITRRGASTYYADSVKGRFTISRDNAKNTVYLQMNSLKPEDTAVYYCNARGWPSSLLYLRDRYQMDYWGQGTQVTVSS", "polyreactivity (PSR sort gate)": "low polyreactivity"},
      {"sequence": "QVQLEESGGGLVQAGGSLRLSCAASGRIFRANSMGWYRQEPGKERELVAAISFSGGGTYYADSVKGRFKISRDNAKNTVYLQMNCLKPEDTAVYYCAADWYVYSPYDYWGQGTQVTVSS", "polyreactivity (PSR sort gate)": "low polyreactivity"},
      {"sequence": "QVQLEESGGGLVQAGGSLRLSCAASGRIFSRYAMGWYRQAPGKERELVAAITQSGTSTYYADSVKGRFTISRDNAKNTVYLQMTSLKPEDTAVYYCNAYRQYRYDYWGQGTQVTVSS", "polyreactivity (PSR sort gate)": "low polyreactivity"}
    ]}
  ]
}
